We go through three substances from patent EP2295560A1, “Directed evolution of arginine deiminase for increased activity at physiological pH” (priority 2009, dated 2011).

This data set concerns N=C(N)NCCC[C@H](N)C(=O)O. The experiment in a line: Determination of kcat and Km (citrulline colorimetric assay, purified enzyme). The format is biochemical, Pseudomonas plecoglossicida CGMCC2039. The following applies: 0.5 M phosphate buffer, 0.2 mM to 10 mM of arginine. Here is the method:
The kcat and Km values were determined from initial velocity data measured as a function of substrate concentration. Enzyme reaction was carried out at 37°C in a water bath. After 10 min preincubation at 37"C, the enzyme reaction was initiated by addition of purified enzyme (50 µl, 0.2-0.5 µM) to the substrate solution (200 µl, 0.2 mM to 10 mM of arginine, 0.5 M phosphate buffer, pH 7.4) in deep well plates. The reaction mixture was incubated (37°C) and every two minutes reaction mixture (30 µl) of each well was transferred to acid-ferric solution (30 µl) to stop the enzyme reaction. The color development was subsequently performed in 96-well PCR plate. Ferric-acid solution (90 µl) and DAM-TSC solution (15 µl) were added to each well. The 96-well PCR plate was then incubated (70°C, 30 min) in thermal cycler (Eppendorf Mastercyler gradient) for color development, followed by incubation in ice water to stop color development. Absorbance was measured at 530 nm using a microtiter plate reader (SPECTROstar Omega, BMG LABTECH, Offenburg, Germany). The initial velocity data obtained were fitted to the equation v = Vmax[S]/([S] + Km) (where v is the initial velocity, Vmax the maximum velocity, [S] the substrate concentration, and Km the Michaelis constant) using GraphPad Prism software (GraphPad software, San Diego, CA, USA). The kcat was calculated from the ratio of Vmax, and enzyme concentration.
For kinetic characterization of ADI variants the citrulline production was maintained between 0.2-0.8 mM. […] Figure 4 summarizes the kcat and Km values of wild type PpADI, identified variants M1 […] and M2 (K5T D44E H404R) which were expressed in shaking flasks cultures and purified using a two step procedure (anion exchange follows by gel filtration). Both variants M1 and M2 show an increase in kcat and Km for citrulline production at pH 7.4.

What is called Km is the substrate concentration at which the rate is half of its maximum. On to “Pseudomonas plecoglossicida arginine deiminase (PpADI) variant M1 (H404R) (Pseudomonas plecoglossicida; H404R)”, for which, where the note is “other: M1, pH 7.4, 37°C”, the Km is 1200 µM.

Regarding “Pseudomonas plecoglossicida arginine deiminase (PpADI) variant M2 (K5T D44E H404R) (Pseudomonas plecoglossicida; D44E/H404R/K5T)”, for the setting “other: M2, pH 7.4, 37°C”, the Km was 2500 µM.

Take “Pseudomonas plecoglossicida arginine deiminase (PpADI), wild type, SEQ ID No. 1 (Pseudomonas plecoglossicida)”: the Michaelis constant (Km) (other: wild type PpADI, pH 7.4, 37°C) turned out to be 700 µM.
